Data as given in patent publication US20250368742A1 (D2M BIOTHERAPEUTICS, published 2025).
Changes are numbered by the printed parent chain.

T1: human MICA002 on cells (human)
T1 chain: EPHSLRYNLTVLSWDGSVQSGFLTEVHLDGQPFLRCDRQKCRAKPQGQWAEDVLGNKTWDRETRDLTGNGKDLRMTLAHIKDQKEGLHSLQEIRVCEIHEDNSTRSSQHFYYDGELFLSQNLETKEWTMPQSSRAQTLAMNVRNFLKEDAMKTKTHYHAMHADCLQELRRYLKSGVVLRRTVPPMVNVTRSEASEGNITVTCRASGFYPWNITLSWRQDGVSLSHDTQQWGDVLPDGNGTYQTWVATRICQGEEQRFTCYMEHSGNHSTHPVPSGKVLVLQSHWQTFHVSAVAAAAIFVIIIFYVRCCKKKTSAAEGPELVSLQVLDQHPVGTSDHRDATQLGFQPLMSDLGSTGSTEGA

T2: MICA004-ECD-HISAvi (human)
T2 construct: also called MICA004 polypeptide
T2 chain: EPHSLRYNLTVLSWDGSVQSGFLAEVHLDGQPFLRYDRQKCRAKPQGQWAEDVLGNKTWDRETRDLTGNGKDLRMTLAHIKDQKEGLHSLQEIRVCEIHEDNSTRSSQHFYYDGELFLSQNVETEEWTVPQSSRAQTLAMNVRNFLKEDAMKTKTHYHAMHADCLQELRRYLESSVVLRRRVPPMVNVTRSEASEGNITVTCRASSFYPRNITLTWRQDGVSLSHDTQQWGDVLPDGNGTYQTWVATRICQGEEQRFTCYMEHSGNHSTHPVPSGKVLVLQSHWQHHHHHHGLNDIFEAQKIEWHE

T3: MICB005-ECD-HISAvi (human, UniProt Q29980 24-309)
T3 construct: Two sources under one name in the two kinetic assays; also called MICB005 polypeptide
T3 sequence: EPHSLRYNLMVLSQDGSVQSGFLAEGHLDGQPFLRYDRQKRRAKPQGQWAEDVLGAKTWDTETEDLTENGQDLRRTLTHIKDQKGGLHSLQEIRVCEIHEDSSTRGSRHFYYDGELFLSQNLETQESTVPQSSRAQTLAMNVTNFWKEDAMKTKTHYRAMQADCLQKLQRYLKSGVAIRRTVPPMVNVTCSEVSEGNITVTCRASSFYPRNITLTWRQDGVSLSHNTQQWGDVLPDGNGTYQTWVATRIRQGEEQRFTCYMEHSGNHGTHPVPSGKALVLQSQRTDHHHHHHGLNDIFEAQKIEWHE

T4: NKG2D-His (UniProt P26718 78-216, limits assumed)
T4 sequence (looked up): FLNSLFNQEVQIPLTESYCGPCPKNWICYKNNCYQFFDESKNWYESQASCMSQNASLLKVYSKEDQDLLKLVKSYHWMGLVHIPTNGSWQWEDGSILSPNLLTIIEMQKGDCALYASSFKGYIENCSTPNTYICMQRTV

B1: h36B3GA (antibody, V domains shown)
VH: QVQLVQSGAEVKKPGASVKVSCKASGYAFTKYNFYWVRQAPGQGLEWIGYIDPYFGGTVYNQKFKGKATLTVDKSTSTAYMELRSLRSDDTAVYYCATTDAYSLFTYWGQGTLVTVSS
VL: DIQMTQSPSSLSASVGDRVTITCRASQDISNYLNWYQQTPGKAVKLLIYYTSRLHSGVPSRFSGSGSGTDYTLTISSLQPEDIATYFCLQGNTLPFTFGQGTKLEIK
notes: humanized #36 variant; the text writes h36B3(GA); copies: 2 + 2
B2: D2M001-001 (antibody, V domains shown)
VH: QVQLVQSGAEVKKPGSSVKVSCKASGYTFSHHSISWVRQAPGQGLEWIGGIYPGKIKTNYAQKFQGRATLTADKSTSTAYMELSSLRSEDTAVYYCATLYGNYEAYWGQGTLVTVSS
VL: DIQMTQSPSSLSASVGDRVTITCRASENIYGALNWYQQKPGKSPKLLIYGTTSLQSGVPSRFSGSGSGRDYTLTISSLQPEDFATYYCQNVLTTPPWTFGGGTKVEIK
notes: only the CDRs are tied to the name in the text; copies: 2 + 2
B3: MICA008-ECD-HISAvi (ligand)
chain: T2 chain with V122L, S175G, R181T, T213I, Q251R
notes: Two sources under one name in the two kinetic assays; also called MICA008 polypeptide
B4: MICA002-ECD-HISAvi (ligand)
chain: T2 chain with W14G, Y36C, V122L, V129M, E173K, S175G, R181T, S206G, R210W, T215S
notes: also called MICA002 polypeptide

Legend:
human MICA002 on cells [1] = molecular target: T1, human MICA002 on cells; test: flow cytometry, CHO-MICA002 cells
human MICA002 on cells [2] = molecular target: T1, human MICA002 on cells; test: flow cytometry, CHO-MICA002 cells
human MICA004 on cells = molecular target: T5, human MICA004 on cells (human); test: flow cytometry, CHO-MICA004 cells
T5 construct: whole, on cells; also called CHO-MICA004; C1R-MICA004

human MICB005 on cells = molecular target: T6, human MICB005 on cells (human); test: flow cytometry, CHO-MICB005 cells
T6 construct: whole, on cells; also called CHO-MICB005; C1R-MICB005

MICA002-ECD-HISAvi = molecular target: B4; test: SPR (Carterra); antibody captured by anti-human Fc, monomeric ECD antigen injected
Protocol: (§1) The dissociation kinetics were monitored for approximately 10 minutes. The chip surface was regenerated between binding cycles with 10 mM glycine HCl, pH 1.7. Binding kinetics were analyzed using software supplied by the manufacturer.

MICA004-ECD-HISAvi = molecular target: T2, MICA004-ECD-HISAvi; test: as above
Protocol: as §1

MICA008-ECD-HISAvi = molecular target: B3; test: as above
Protocol: as §1

MICB005-ECD-HISAvi = molecular target: T3, MICB005-ECD-HISAvi; test: as above
Protocol: as §1

NKG2D-His = molecular target: T4, NKG2D-His; test: ELISA: NKG2D-His coated, MICA/B-ECD titrated, detection 1D5 + anti-hFc-HRP

Binder: B1
EC50 (read off the curve) (human MICA002 on cells [1]): ~0.6 µg/mL

Binder: B2
EC50 (human MICA002 on cells [2]): 1.26 µg/mL
EC50 (human MICA004 on cells): 7.12 µg/mL
EC50 (human MICB005 on cells): 2.77 µg/mL
Kd (MICA002-ECD-HISAvi): 61.4 nM
Kd (MICA004-ECD-HISAvi): 156 nM
Kd (MICA008-ECD-HISAvi): 255 nM
Kd (MICB005-ECD-HISAvi): 158 nM

Binder: B3
EC50 (read off the curve) (NKG2D-His): ~0.1 µg/mL

Binder: B4
EC50 (read off the curve) (NKG2D-His): ~0.2 µg/mL
